The source of these data is patent US20060234942 (published 2006).

T1: angiotensin I converting enzyme (ACE) (UniProt P12821)
T1 chain: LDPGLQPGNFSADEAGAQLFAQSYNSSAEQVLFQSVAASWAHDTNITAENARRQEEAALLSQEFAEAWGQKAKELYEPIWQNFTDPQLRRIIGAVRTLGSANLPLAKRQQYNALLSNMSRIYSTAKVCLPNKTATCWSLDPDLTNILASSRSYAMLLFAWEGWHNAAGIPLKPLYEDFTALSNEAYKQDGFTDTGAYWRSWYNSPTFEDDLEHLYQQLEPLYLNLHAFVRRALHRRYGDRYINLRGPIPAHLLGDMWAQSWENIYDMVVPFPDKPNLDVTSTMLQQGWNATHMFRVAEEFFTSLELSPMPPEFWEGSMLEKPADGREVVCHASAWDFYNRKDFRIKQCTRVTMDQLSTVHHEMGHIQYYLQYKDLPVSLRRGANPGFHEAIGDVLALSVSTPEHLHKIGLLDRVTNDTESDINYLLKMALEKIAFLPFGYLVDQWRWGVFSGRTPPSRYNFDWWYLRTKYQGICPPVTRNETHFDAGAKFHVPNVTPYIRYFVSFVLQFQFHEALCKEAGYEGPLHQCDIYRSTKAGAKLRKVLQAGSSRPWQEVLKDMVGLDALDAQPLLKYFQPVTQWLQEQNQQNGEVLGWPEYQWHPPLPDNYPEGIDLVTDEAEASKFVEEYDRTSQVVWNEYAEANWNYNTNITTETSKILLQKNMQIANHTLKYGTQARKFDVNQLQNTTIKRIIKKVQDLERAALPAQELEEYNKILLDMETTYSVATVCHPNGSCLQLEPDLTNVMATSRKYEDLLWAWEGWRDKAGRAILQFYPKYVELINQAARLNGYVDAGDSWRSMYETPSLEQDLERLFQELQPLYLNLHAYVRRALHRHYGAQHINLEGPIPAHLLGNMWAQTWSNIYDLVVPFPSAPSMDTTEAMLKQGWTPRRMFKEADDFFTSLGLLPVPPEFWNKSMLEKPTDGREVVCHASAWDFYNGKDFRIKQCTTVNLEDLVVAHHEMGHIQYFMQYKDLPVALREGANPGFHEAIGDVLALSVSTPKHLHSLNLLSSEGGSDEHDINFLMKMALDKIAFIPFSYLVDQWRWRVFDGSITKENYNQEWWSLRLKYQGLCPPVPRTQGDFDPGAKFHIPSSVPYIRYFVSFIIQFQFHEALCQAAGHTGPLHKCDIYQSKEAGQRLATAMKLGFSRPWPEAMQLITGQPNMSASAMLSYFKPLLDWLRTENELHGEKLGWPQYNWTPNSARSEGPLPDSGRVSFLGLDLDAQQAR

B1: ALNEINQFYQK (CNαS2-(f81-91)) (peptide)
chain: ALNEINQFYQK
B2: ALNEINQFY (CNαS2-(f81-89)) (peptide)
chain: ALNEINQFY
B3: FALPQYLK (CNαS2-(f174-181)) (peptide)
chain: FALPQYLK
B4: FALPQY (CNαS2-(f174-179)) (peptide)
chain: FALPQY
B5: NMAINPSK (CNαS2-(f25-32)) (peptide)
chain: NMAINPSK
B6: TVY (CNαS2-(f182-184)) (peptide)
chain: TVY
B7: FPQYLQY (CNαS2-(f92-98)) (peptide)
chain: FPQYLQY

This experiment concerns the target T1, angiotensin I converting enzyme (ACE). Nature of the experiment: other, ACE inhibition.
For the molecule B1, half-maximal inhibition (IC50) required 26.4 µM.

Turning to B2, the IC50 (as a rule, the point on the concentration scale where inhibition reaches its midpoint) was 219 µM.

For the molecule B3, the midpoint of inhibition, the IC50, lay at 4.3 µM.

In the case of B4, the IC50 was determined as 4.3 µM.

Molecule B5 displayed an IC50 of 60 µM.

B6 gave an IC50 of 15 µM.

Regarding B7, the IC50 came to 14 µM.
